Measured values taken from US20040018971A1 (published 2004).

Each binder was assayed against T1, HLA-A*0101 (human) (assay: competition with 125I-labelled probe peptide for purified HLA-A*0101, gel filtration; ratio = IC50 of standard peptide 944.02 / IC50 of test peptide).
T1 construct: also called HLA-A1

Binder | relative binding ratio [ratio]
VLQGLPREY | 0.005
LMTFGAKPY [HER2/neu peptide, position 915, 9 amino acids, listing 1 of 2 here] | 0.0011
FSPAFDNLY [HER2/neu peptide, position 1213, 9 amino acids] | 0.043
GSGAFGTVY [HER2/neu peptide, position 727, 9 amino acids] | 0.0011
PTAENPEY [HER2/neu peptide, position 1241, 8 amino acids] | 0.003
VTACPYNY (Synthetic peptide; also called Her2/neu.296) [HER2/neu peptide, position 296, 8 amino acids] | 0.1
ASPLDSTFY [HER2/neu peptide, position 997, 9 amino acids] | 0.029
QIAKGMSY [HER2/neu peptide, position 828, 8 amino acids] | -0.0021
ASCVTACPY (Synthetic peptide; also called Her2/neu.293) [HER2/neu peptide, position 293, 9 amino acids] | 0.055
TLEEITGY [HER2/neu peptide, position 402, 8 amino acids] | -0.0021
MTFGAKPY [HER2/neu peptide, position 916, 8 amino acids] | -0.0021
ETLEEITGY [HER2/neu peptide, position 401, 9 amino acids] | 0.043
SMPNPEGRY | 0.0028
CVTACPYNY [HER2/neu peptide, position 295, 9 amino acids] | 0.0042
PLPSETDGY [HER2/neu peptide, position 1119, 9 amino acids] | 0.0017
ELHCPALVTY [HER2/neu peptide, position 265, 10 amino acids] | 0.0015
LIQRNPQLCY [HER2/neu peptide, position 154, 10 amino acids, listing 1 of 2 here] | 0.03

The binders below were run against HLA-A*1101 (human) (assay: competition with 125I-labelled probe peptide on purified HLA-A*1101, relative to standard peptide 940.06).

Binder | relative binding ratio
SVFQNLQVIR (Synthetic peptide) [HER2/neu peptide, position 423, 10 amino acids] | 0.075 ratio (IC50 of standard peptide / IC50 of test peptide)
RILKETELRK (Synthetic peptide) [HER2/neu peptide, position 713, 10 amino acids] | 0.11 ratio (IC50 of standard peptide / IC50 of test peptide)
RLVHRDLAAR (Synthetic peptide) [HER2/neu peptide, position 840, 10 amino acids] | 0.0001 ratio (IC50 of standard peptide / IC50 of test peptide)
TLEEITGYLY (Synthetic peptide; also called Her2/neu.402) [HER2/neu peptide, position 402, 10 amino acids] | 0.0001 ratio (IC50 of standard peptide / IC50 of test peptide)
VARCPSGVK (Synthetic peptide) [HER2/neu peptide, position 597, 9 amino acids] | -0.0002 ratio (IC50 of standard peptide / IC50 of test peptide)
TIDVYMIMVK (Synthetic peptide) [HER2/neu peptide, position 948, 10 amino acids] | 0.12 ratio (IC50 of standard peptide / IC50 of test peptide)
TILWKDIFHK (Synthetic peptide; also called Her2/neu.166) [HER2/neu peptide, position 166, 10 amino acids] | 3.6 ratio (IC50 of standard peptide / IC50 of test peptide)
TLIDTNRSR (Synthetic peptide) [HER2/neu peptide, position 182, 9 amino acids] | 0.0005 ratio (IC50 of standard peptide / IC50 of test peptide)
RGTQLFEDNY (Synthetic peptide) [HER2/neu peptide, position 103, 10 amino acids] | 0.0015 ratio (IC50 of standard peptide / IC50 of test peptide)
SMPNPEGRY (Synthetic peptide) | 0.0003 ratio (IC50 of standard peptide / IC50 of test peptide)
VLQGLPREY (Synthetic peptide) | 0.0002 ratio (IC50 of standard peptide / IC50 of test peptide)
RLLDIDETEY (Synthetic peptide) [HER2/neu peptide, position 868, 10 amino acids] | 0.0001 ratio (IC50 of standard peptide / IC50 of test peptide)
RVLQGLPREY (The row follows '545; 8 then 545; 10 at the same point) [HER2/neu peptide, position printed as 515 (read as 545), 10 amino acids] | 0.005 ratio (IC50 of standard peptide / IC50 of test peptide)
RILKETELR (Synthetic peptide) [HER2/neu peptide, position 713, 9 amino acids] | 0.0038 ratio (IC50 of standard peptide / IC50 of test peptide)
VLIAHNQVR (Synthetic peptide) [HER2/neu peptide, position 84, 9 amino acids] | 0.0007 ratio (IC50 of standard peptide / IC50 of test peptide)
TVPWDQLFR (Synthetic peptide) [HER2/neu peptide, position 479, 9 amino acids] | 0.0072 ratio (IC50 of standard peptide / IC50 of test peptide)
SSEDCQSLTR (Synthetic peptide) [HER2/neu peptide, position 208, 10 amino acids] | 0.002 ratio (IC50 of standard peptide / IC50 of test peptide)
VLVKSPNHVK (Synthetic peptide) [HER2/neu peptide, position 851, 10 amino acids] | 0.0072 ratio (IC50 of standard peptide / IC50 of test peptide)

What follows are binders tested against HLA-B*0702 (human) (assay: competition vs 125I-labelled probe peptide, purified HLA, gel filtration).

Binder | IC50 [nM]
FPGKNGVI (8-mer analog of the HER2/neu peptide starting at position 1174) [Her2/neu.1174.F1I8] | 458

What follows are binders tested against HLA-B*5101 (human) in the same assay as above.

Binder | IC50 [nM]
FPGKNGVI (8-mer analog of the HER2/neu peptide starting at position 1174) [Her2/neu.1174.F1I8] | 177

These binders were tested against HLA-B*5401 (human) in the same assay as above.

Binder | IC50 [nM]
FPGKNGVI (8-mer analog of the HER2/neu peptide starting at position 1174) [Her2/neu.1174.F1I8] | 385

What follows are binders tested against T2, HLA-A*0201 (purified HLA class I molecule) (human) (assay: competition with 125I-labelled standard peptide for purified HLA, gel filtration).
T2 construct: also called HLA-A2.1

Binder | relative binding ratio (IC50 of standard peptide / IC50 of test peptide) [ratio]
PLTSIISAVV (Synthetic peptide) [HER2/neu peptide, position 650, 10 amino acids] | 0.0003
RACHPCSPM (Synthetic peptide) [HER2/neu peptide, position 190, 9 amino acids] | 0.0001
QLRSLTEIL (Synthetic peptide) [HER2/neu peptide, position 141, 9 amino acids] | 0.0008
PLQPEQLQV (Synthetic peptide) [HER2/neu peptide, position 391, 9 amino acids] | 0.0002
QLCYQDTIL (Synthetic peptide; also called HER2/neu 160-168) [HER2/neu peptide, position 160, 9 amino acids] | 0.0001
PLDSTFYRSL (Synthetic peptide; also called HER2/neu 999-1008) [HER2/neu peptide, position 999, 10 amino acids] | 0.0001
PLTSIISAV (Synthetic peptide) [HER2/neu peptide, position 650, 9 amino acids] | 0.0015
QLFRNPHQA (Synthetic peptide; also called HER2/neu 484-492) [HER2/neu peptide, position 484, 9 amino acids] | 0.0062
QVCTGTDMKL (Synthetic peptide; also called HER2/neu 24-33) [HER2/neu peptide, position 24, 10 amino acids] | 0.0001
QVPLQRLRIV (Synthetic peptide) [HER2/neu peptide, position 93, 10 amino acids] | 0.0001
QIAKGMSYL (Synthetic peptide; also called HER2/neu 828-836) [HER2/neu peptide, position 828, 9 amino acids] | 0.0006
PINCTHSCV (Synthetic peptide; also called HER2/neu 627-635) [HER2/neu peptide, position 627, 9 amino acids] | 0.0002
PLPSETDGYV (Synthetic peptide; also called HER2/neu 1119-1128) [HER2/neu peptide, position 1119, 10 amino acids] | 0.0001
QMRILKETEL (Synthetic peptide; also called HER2/neu 711-720) [HER2/neu peptide, position 711, 10 amino acids] | 0.0001
QVRQVPLQRL (Synthetic peptide; also called HER2/neu 90-99) [HER2/neu peptide, position 90, 10 amino acids] | 0.0001
QVVQGNLEL (Synthetic peptide; also called HER2/neu 54-62) [HER2/neu peptide, position 54, 9 amino acids] | 0.0001
PVTGASPGGL (Synthetic peptide) [HER2/neu peptide, position 128, 10 amino acids] | 0.0001

These binders were tested against HLA-A*1101 (human) (assay: competition with 125I-labelled probe peptide for purified HLA-A*1101, gel filtration; standard peptide 940.06 [..] (6.0 nM)).

Binder | relative binding ratio
KIPVAIKVLR [HER2/neu peptide, position 747, 10 amino acids] | 0.0099 ratio (IC50 of standard peptide / IC50 of test peptide)
LACHQLCAR [HER2/neu peptide, position 509, 9 amino acids] | 0.0003 ratio (IC50 of standard peptide / IC50 of test peptide)
LIKRRQQKIR [HER2/neu peptide, position 674, 10 amino acids] | 0.0001 ratio (IC50 of standard peptide / IC50 of test peptide)
LGSGAFGTVY [HER2/neu peptide, position 726, 10 amino acids] | 0.0003 ratio (IC50 of standard peptide / IC50 of test peptide)
KVLRENTSPK [HER2/neu peptide, position 753, 10 amino acids] | 0.22 ratio (IC50 of standard peptide / IC50 of test peptide)
LCYQDTILWK [HER2/neu peptide, position 161, 10 amino acids] | 0.0063 ratio (IC50 of standard peptide / IC50 of test peptide)
LIQRNPQLCY [HER2/neu peptide, position 154, 10 amino acids, listing 2 of 2 here] | 0.0002 ratio (IC50 of standard peptide / IC50 of test peptide)
LLNWCMQIAK [HER2/neu peptide, position 822, 10 amino acids] | 0.14 ratio (IC50 of standard peptide / IC50 of test peptide)
LSPGKNGVVK [HER2/neu peptide, position 1173, 10 amino acids] | 0.0003 ratio (IC50 of standard peptide / IC50 of test peptide)
LALTLIDTNR [HER2/neu peptide, position 179, 10 amino acids] | 0.0003 ratio (IC50 of standard peptide / IC50 of test peptide)
KIRKYTMR [HER2/neu peptide, position 681, 8 amino acids] | 0.0004 ratio (IC50 of standard peptide / IC50 of test peptide)
LMTFGAKPY [HER2/neu peptide, position 915, 9 amino acids, listing 2 of 2 here] | 0.0003 ratio (IC50 of standard peptide / IC50 of test peptide)
ILWKDIFHK (also called Her2/neu.167) [HER2/neu peptide, position 167, 9 amino acids] | 0.31 ratio (IC50 of standard peptide / IC50 of test peptide)
